Tests used:
Grb2 SH2 = Grb2 SH2 (UniProt P62993); assay: SH2 binding enrichment of the phosphorylated peptide, bacterial display (enrichment ratio); higher = better substrate or ligand; peptides without Tyr show the background
c-Src SH2 = assay: as above
SHP2-C SH2 = assay: as above
Fyn = Fyn (UniProt P06241); assay: phosphorylation enrichment, bacterial display (enrichment ratio); higher = better substrate or ligand; peptides without Tyr show the background
c-Src = assay: as above
Fer (mouse) = assay: as above
EPHB2 = EPHB2 (UniProt P29323); assay: as above
FGFR1 = FGFR1 (UniProt P11362); assay: as above
FGFR3 = FGFR3 (UniProt P22607); assay: as above
EPHB1 = EPHB1 (UniProt P54762); assay: as above
Jak2 = Jak2 (UniProt O60674); assay: as above
c-Abl (mouse) = assay: as above
AncSZ = assay: as above
Fes = Fes (UniProt P07332); assay: as above
Hck = Hck (UniProt P08631); assay: as above
MERTK = MERTK (UniProt Q12866); assay: as above
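For SH2 binding enrichment of the phosphorylated peptide, bacterial display in this document: peptide library displayed on the E. coli surface as eCPX fusions, selected cells deep-sequenced, score is each peptide's frequency after selection divided by its frequency in the input.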
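For phosphorylation enrichment, bacterial display in this document: 11-residue human phosphosite peptides and single-mutation variants displayed on the E. coli surface, counted by deep sequencing, each peptide's frequency after selection divided by its frequency in the unselected input library; frequency after pTyr selection over input frequency; kinase dosed for 20-30% of maximal phosphorylation in three min.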

Sequence of FGFR3 (P22607 whole entry, looked up): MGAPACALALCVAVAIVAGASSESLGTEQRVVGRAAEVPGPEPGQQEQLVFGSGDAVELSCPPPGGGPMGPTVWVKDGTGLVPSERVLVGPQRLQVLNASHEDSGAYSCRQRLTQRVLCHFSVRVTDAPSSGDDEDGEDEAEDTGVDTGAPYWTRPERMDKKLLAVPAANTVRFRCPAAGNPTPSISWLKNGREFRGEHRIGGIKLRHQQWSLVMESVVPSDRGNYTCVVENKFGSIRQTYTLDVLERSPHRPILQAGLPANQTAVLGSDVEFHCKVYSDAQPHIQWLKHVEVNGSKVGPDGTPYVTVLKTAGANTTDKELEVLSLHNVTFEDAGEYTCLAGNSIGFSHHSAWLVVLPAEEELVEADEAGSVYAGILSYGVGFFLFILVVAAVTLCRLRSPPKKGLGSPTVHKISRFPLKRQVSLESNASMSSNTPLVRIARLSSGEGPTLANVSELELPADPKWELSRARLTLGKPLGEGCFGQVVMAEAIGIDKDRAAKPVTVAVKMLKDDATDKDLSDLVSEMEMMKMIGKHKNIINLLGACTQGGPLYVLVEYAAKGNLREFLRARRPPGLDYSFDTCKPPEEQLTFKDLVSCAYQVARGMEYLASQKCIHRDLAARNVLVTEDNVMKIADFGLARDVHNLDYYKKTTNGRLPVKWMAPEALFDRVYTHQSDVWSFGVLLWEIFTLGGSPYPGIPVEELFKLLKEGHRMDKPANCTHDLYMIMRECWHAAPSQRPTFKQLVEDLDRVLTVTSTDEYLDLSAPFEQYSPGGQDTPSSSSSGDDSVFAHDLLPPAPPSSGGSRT
Sequence of Fes (P07332 whole entry, looked up): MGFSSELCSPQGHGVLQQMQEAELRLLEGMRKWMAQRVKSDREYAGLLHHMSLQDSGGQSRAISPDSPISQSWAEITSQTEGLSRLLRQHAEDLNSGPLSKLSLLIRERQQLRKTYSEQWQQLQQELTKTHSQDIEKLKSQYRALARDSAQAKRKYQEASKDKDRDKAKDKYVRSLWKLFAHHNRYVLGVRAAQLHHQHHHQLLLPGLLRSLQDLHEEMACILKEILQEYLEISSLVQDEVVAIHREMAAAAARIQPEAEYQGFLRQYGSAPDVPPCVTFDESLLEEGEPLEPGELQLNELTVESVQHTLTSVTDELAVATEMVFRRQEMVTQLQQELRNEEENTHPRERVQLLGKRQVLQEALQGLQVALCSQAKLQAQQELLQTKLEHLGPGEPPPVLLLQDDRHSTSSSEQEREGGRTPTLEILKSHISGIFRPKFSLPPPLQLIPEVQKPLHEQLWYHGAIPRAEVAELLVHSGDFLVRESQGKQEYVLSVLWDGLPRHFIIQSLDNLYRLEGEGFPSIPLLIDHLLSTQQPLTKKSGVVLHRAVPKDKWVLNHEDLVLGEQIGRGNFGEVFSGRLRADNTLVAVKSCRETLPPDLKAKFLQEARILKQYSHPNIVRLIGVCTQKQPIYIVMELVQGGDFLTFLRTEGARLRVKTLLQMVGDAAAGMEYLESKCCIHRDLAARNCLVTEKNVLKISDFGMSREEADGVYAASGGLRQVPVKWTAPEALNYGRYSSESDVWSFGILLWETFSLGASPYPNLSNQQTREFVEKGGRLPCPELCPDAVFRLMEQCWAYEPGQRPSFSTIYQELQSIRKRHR
Sequence of EPHB1 (P54762 whole entry, looked up): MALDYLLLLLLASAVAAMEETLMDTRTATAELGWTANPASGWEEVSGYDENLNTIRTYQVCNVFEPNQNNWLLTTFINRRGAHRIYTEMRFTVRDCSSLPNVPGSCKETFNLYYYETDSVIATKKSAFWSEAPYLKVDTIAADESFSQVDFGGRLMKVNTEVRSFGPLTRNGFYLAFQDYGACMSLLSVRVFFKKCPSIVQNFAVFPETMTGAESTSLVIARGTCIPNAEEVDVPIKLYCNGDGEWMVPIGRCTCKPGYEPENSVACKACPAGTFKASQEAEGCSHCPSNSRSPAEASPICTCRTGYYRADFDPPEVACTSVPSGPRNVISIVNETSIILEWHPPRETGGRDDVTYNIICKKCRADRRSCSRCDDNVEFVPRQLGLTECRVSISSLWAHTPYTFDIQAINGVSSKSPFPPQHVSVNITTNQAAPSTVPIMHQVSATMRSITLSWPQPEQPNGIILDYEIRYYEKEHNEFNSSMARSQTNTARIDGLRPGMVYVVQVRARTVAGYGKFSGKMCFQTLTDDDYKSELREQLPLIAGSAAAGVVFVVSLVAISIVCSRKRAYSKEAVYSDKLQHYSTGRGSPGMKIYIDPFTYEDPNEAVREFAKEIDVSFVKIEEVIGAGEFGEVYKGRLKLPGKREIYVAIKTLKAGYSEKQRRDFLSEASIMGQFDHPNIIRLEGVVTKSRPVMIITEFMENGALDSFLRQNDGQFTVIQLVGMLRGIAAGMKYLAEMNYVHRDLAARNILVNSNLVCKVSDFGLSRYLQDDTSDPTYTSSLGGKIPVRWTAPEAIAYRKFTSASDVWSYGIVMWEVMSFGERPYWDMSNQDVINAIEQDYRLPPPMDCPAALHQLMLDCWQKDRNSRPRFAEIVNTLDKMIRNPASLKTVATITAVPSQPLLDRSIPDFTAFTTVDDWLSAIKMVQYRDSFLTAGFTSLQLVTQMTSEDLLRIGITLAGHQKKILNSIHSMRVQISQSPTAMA
Sequence of Hck (P08631 whole entry, looked up): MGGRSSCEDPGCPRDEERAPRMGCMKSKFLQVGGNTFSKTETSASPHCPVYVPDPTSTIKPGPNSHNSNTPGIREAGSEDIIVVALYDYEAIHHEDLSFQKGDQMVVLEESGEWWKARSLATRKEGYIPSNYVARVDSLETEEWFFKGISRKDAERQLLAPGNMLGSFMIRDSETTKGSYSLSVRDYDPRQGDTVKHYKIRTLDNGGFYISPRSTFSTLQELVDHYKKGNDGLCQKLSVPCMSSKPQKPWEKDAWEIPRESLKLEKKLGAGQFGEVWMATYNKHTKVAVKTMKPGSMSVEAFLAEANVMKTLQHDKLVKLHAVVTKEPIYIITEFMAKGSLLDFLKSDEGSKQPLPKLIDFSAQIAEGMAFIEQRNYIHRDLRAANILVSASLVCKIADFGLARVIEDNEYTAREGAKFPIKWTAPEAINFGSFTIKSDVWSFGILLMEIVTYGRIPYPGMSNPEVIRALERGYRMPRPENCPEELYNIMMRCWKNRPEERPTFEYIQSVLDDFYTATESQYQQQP
Sequence of FGFR1 (P11362 whole entry, looked up): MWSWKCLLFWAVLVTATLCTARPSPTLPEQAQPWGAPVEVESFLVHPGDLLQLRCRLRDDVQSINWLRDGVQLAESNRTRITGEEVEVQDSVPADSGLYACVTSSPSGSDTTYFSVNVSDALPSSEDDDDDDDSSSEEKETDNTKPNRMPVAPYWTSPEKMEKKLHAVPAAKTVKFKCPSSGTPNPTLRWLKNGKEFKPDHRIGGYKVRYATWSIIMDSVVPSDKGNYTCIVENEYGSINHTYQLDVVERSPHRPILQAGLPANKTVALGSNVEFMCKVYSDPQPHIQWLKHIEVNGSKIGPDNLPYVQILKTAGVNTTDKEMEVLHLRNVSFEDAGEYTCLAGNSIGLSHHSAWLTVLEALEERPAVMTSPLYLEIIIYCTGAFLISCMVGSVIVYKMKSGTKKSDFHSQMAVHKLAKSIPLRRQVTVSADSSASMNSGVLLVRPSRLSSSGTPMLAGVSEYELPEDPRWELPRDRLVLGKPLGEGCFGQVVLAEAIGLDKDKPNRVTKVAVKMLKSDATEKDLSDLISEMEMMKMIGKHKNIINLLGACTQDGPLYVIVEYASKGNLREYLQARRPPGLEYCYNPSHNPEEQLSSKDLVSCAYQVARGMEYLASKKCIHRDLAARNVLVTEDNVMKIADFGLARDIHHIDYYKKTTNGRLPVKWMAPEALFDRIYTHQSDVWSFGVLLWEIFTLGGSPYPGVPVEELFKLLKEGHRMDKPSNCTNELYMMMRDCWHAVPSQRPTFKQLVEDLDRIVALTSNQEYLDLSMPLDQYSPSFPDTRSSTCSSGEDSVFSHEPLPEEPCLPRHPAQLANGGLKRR
Sequence of MERTK (Q12866 whole entry, looked up, the tested form may be a part): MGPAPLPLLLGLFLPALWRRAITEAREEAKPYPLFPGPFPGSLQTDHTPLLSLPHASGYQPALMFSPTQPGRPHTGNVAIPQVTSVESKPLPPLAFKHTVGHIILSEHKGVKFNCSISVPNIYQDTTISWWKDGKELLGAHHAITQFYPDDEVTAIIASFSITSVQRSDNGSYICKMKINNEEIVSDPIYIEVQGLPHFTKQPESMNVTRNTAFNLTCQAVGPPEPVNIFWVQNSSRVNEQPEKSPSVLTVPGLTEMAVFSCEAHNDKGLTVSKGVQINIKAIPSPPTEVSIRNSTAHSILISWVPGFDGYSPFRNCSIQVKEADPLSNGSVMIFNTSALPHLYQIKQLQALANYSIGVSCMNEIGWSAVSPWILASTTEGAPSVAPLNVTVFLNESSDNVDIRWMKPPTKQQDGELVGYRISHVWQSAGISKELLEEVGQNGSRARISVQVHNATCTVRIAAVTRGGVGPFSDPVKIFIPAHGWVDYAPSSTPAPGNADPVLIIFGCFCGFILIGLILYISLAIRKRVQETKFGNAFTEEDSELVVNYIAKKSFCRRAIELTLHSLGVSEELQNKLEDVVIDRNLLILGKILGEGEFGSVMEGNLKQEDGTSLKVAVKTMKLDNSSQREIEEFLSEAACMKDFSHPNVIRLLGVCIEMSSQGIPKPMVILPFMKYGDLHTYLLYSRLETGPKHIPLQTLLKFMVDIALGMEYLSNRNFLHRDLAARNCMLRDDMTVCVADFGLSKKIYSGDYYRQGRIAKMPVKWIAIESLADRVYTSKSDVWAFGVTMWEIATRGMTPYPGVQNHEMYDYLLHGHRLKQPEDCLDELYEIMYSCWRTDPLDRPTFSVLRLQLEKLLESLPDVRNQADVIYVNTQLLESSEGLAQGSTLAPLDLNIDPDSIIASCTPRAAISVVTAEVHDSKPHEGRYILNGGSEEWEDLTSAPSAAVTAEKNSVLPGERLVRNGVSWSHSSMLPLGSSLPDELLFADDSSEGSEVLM

SH2 binding enrichment (Grb2 SH2)	SH2 binding enrichment (c-Src SH2)	SH2 binding enrichment (SHP2-C SH2)	Sequence	phosphorylation enrichment (Fyn)	phosphorylation enrichment (c-Src)	phosphorylation enrichment (Fer (mouse))	phosphorylation enrichment (EPHB2)	phosphorylation enrichment (FGFR1)	phosphorylation enrichment (FGFR3)	phosphorylation enrichment (EPHB1)	phosphorylation enrichment (Jak2)	phosphorylation enrichment (c-Abl (mouse))	phosphorylation enrichment (AncSZ)	phosphorylation enrichment (Fes)	phosphorylation enrichment (Hck)	phosphorylation enrichment (MERTK)
0.729	0.456	0.739	LVSCTYQLATG [FGFR2_Y608_R612T]	0.596	0.952	0.615	0.668	0.559	0.764	0.717	1.05	0.83	1.41	1.3	0.631	0.546
1.43	0.81	0.808	LWKWKYEELKE [CCDC102B_Y299]	0.631	0.27	0.712	0.493	0.573	1.24	0.92	1.09	0.725	1.28	1.73	0.513	0.336
0.785	0.467	0.634	LYDPDFMKVIL [CYP4A22_Y104_Y104F]	0.888	0.954	1.09	1.01	0.562	0.688	0.772	1.39	1.8	1.18	1.78	0.634	2.57
0.877	0.839	0.708	MARDIYRASYY [ALK_Y1278]	0.688	1.58	0.408	0.439	0.624	0.63	0.466	0.702	1.77	0.685	0.683	1.01	0.673
0.764	0.672	0.666	MASISYDFCRV [BST2_Y6_T4I_YF]	0.554	0.497	1.59	0.712	0.496	0.824	0.692	1.03	0.908	1.24	1.17	0.629	0.653
0.952	0.557	0.759	MDDKEYYSVHN [MET_Y1234_Y1230D]	0.575	0.695	0.54	0.62	2.06	1.88	0.613	1.03	0.747	1.99	1.06	0.619	0.373
0.728	0.841	0.557	METKGYQSLPE [NR3C2_Y6_H7Q]	0.421	0.326	0.448	0.449	0.449	0.568	0.495	0.77	0.683	0.682	0.825	0.423	0.361
0.867	0.641	0.633	MFNPCYGLFEY [NEDD4L_Y680_Y679C]	5.24	5.01	1.6	0.604	0.616	0.752	0.739	1.11	0.842	1.26	1.32	2.54	1.69
1.56	1.17	1.5	MFNPFYGLFEF [NEDD4L_Y680_YF]	4.38	5.41	5.44	0.549	0.602	0.794	0.513	0.852	0.775	0.998	1.04	2.35	5.83
0.61	0.439	0.653	MGIMLYGVDSR [PKD1_Y3143_V3138M]	0.467	0.496	0.529	0.576	0.449	0.694	0.546	1.03	0.745	0.931	1.08	0.55	0.475
0.747	1.97	0.792	MKTISYETLIA [DOCK10_Y1350]	0.431	0.379	0.497	0.474	0.472	0.622	0.53	0.927	0.526	0.847	0.926	0.501	0.384
0.776	1.34	0.656	MNPPPYSQLLS [FGF23_Y154_F157L]	0.522	0.644	0.483	0.606	0.527	0.71	0.639	0.523	0.489	0.692	0.623	0.568	0.451
0.789	0.845	0.684	MSFDRYMAVCH [OR2A5_Y123_I126V_YF]	0.585	0.473	0.558	0.838	0.532	0.738	0.858	0.927	0.931	1.09	1.1	0.638	0.567
0.838	0.71	0.997	MSIWPYLQKID [MFSD8_Y63]	0.329	0.323	0.362	0.472	0.422	0.599	0.667	0.627	0.699	0.789	0.854	0.468	0.302
1.2	0.715	0.735	MSRDVYSTDYY [NTRK2_Y702]	2.77	3.88	0.535	2.65	3.94	2.72	2.16	0.788	0.558	1.59	0.842	1.73	5.06
1.38	1	2.98	MSSLPYMKVIF [SLC4A11_Y853_M856V]	0.507	0.516	1.01	0.541	0.764	0.592	0.482	1.02	0.461	0.822	0.84	0.622	0.507

SH2 binding enrichment (Grb2 SH2)	SH2 binding enrichment (c-Src SH2)	SH2 binding enrichment (SHP2-C SH2)	Sequence	phosphorylation enrichment (Fyn)	phosphorylation enrichment (c-Src)	phosphorylation enrichment (Fer (mouse))	phosphorylation enrichment (EPHB2)	phosphorylation enrichment (FGFR1)	phosphorylation enrichment (FGFR3)	phosphorylation enrichment (EPHB1)	phosphorylation enrichment (Jak2)	phosphorylation enrichment (c-Abl (mouse))	phosphorylation enrichment (AncSZ)	phosphorylation enrichment (Fes)	phosphorylation enrichment (Hck)	phosphorylation enrichment (MERTK)
0.739	0.716	0.547	NACGLYYKLHN [GATA2_Y376]	0.504	1.54	0.56	0.774	1.43	1.48	1.13	2.27	0.922	1.5	1.3	1.21	2.29
0.795	0.421	0.625	NDFGNYSNQSS [HNRNPA1_Y318_N319S]	0.416	0.463	0.43	1.92	0.461	0.49	6.89	0.546	0.458	1.02	0.619	0.451	0.501
0.711	0.473	0.567	NDKLRYEVSSP [CDH13_Y66]	0.421	0.438	0.443	0.502	0.475	0.615	0.473	0.884	0.692	1.14	1.01	0.502	0.451
0.664	7.22	0.784	NDTAGYFVIGG [SEL1L3_Y399_I401V]	0.848	0.727	0.581	0.642	2.16	1.64	0.669	6.88	0.781	1.17	1.1	0.75	0.872
1.26	0.781	1.1	NFATLYLKIFH [PDE6B_Y219_YF]	0.412	0.434	0.502	0.599	0.669	0.734	0.604	0.953	0.83	1.21	1.27	0.497	0.457
0.887	0.539	0.859	NFATLYLKIYH [PDE6B_Y219]	0.42	0.403	0.492	0.574	0.464	0.709	0.564	1.27	0.827	0.989	1.28	0.42	0.392
0.793	0.496	0.644	NGRTGYVLQPE [PLCG2_Y1036]	0.448	0.416	0.466	0.384	0.383	0.431	0.435	0.566	0.494	0.588	0.757	0.474	0.399
1.09	3.1	25.9	NGSKGYAFVHF [PABPC5_Y147_YF]	0.469	0.407	0.478	0.606	0.5	0.611	0.481	0.825	0.755	0.879	0.875	0.445	0.444
0.655	1.24	12.8	NGTVTYAIVAG [CDH23_Y1672]	0.904	1.08	0.471	2.01	0.545	0.714	3.07	0.799	0.688	0.99	0.992	1.09	2.6
1.15	2.86	0.938	NHQYDYTFHWT [CSNK1A1_Y294_D297H]	0.602	1.84	9.26	3.07	5.52	3.88	3.18	0.892	0.7	2.13	0.938	0.758	3.15
0.765	0.489	0.735	NLSVPYDSSLK [ABCC8_Y1353_R1352P]	0.41	0.508	0.418	0.509	0.445	0.503	0.451	0.588	0.516	0.601	0.68	0.445	0.426
0.804	0.507	0.718	NLTLKYPIEHG [ACTA1_Y71_I66N]	0.47	0.417	0.375	0.541	0.598	0.549	0.493	0.669	0.717	0.767	0.93	0.446	0.407
0.796	1.71	13.7	NMHSTYAKLAA [SEC22B_Y193]	0.415	0.375	0.34	0.451	0.385	0.349	0.437	0.362	0.47	0.382	0.401	0.948	0.38
0.863	0.587	0.856	NNHGNYIVHLG [ETFDH_Y172_R175H]	0.525	0.391	0.712	2.19	0.623	0.537	4.2	0.583	0.53	0.71	0.698	0.511	0.493
0.813	0.486	0.769	NPIGLYSAETL [LDB3_Y202]	0.666	0.962	1.12	1.74	0.451	0.498	1.73	0.71	0.496	0.691	0.72	0.967	4.18
1.11	0.412	0.66	NPQKSYFICLY [WAS_Y83_R86C]	0.443	0.415	0.496	0.604	0.848	0.975	0.675	1.12	0.925	1.11	1.2	0.438	0.557

Sequence	SH2 binding enrichment (Grb2 SH2)	SH2 binding enrichment (c-Src SH2)	SH2 binding enrichment (SHP2-C SH2)	phosphorylation enrichment (Fyn)	phosphorylation enrichment (c-Src)	phosphorylation enrichment (Fer (mouse))	phosphorylation enrichment (EPHB2)	phosphorylation enrichment (FGFR1)	phosphorylation enrichment (FGFR3)	phosphorylation enrichment (EPHB1)	phosphorylation enrichment (Jak2)	phosphorylation enrichment (c-Abl (mouse))	phosphorylation enrichment (AncSZ)	phosphorylation enrichment (Fes)	phosphorylation enrichment (Hck)	phosphorylation enrichment (MERTK)
MRALTYCDLHK [KCNH2_Y827_V822M]	0.703	0.626	0.708	0.407	0.37	0.507	0.523	0.509	0.536	0.73	0.771	0.626	0.853	1.09	0.507	0.365

— the supplement of paper PMC10065799, “High-throughput profiling of sequence recognition by tyrosine kinases and SH2 domains using bacterial peptide display” (eLife, 2023)
